Measured values published in US20260209359A1 (NEXTERA, published 2026).
Where a chain is given by its changes, count along the chain named.

B1: AMC1 scDb (bispecific antibody)
chain: DIRLTQSPSSLSASVGDRVTMTCRASQTVATYVNWYQQKPGRAPKLLMYVTSIRQSEVPSRFSGDGFGTDFTLTINPLQPDDFATYYCQQAYSTPVTFGQGTKLEIKGGGGSEVQLQQSGPELVKPGASMKISCKASGYSFTGYTMNWVKQSHGKNLEWMGLINPYKGVSTYNQKFKDKATLTVDKSSSTAYMELLSLTSEDSAVYYCARSGYYGDSDWYFDVWGAGTTVTVSSGGGGSGGGGSGGGGSDIQMTQTTSSLSASLGDRVTISCRASQDIRNYLNWYQQKPDGTVKLLIYYTSRLHSGVPSKFSGSGSGTDYSLTISNLEQEDIATYFCQQGNTLPWTFAGGTKLEIKGGGGSQVQLVQSGAEVKKPGASVKVSCKVSGPKLYEVSMHWVRQAPGKGLEWMGGFDPEDGETIYAQKFQGRVTMTEDTSTDTAYMELSSLRSEDTAVYYCATDQGASWGFYWGQGTLVTVSS
notes: as m68
B2: AMC6 scDb (bispecific antibody)
chain: B1 chain with A463S
notes: as m68
B3: AM1 scDb (bispecific antibody)
chain: DIRVTQSPSSLSASVGDRVTITCRADVHIYWYLNWYQQKPGKAPKLLIYAASSLQSGVPSRFSGSGSGTDFTLTISSLQPEDFATYYCQQSYSTPYTFGQGTKLEIKGGGGSEVQLQQSGPELVKPGASMKISCKASGYSFTGYTMNWVKQSHGKNLEWMGLINPYKGVSTYNQKFKDKATLTVDKSSSTAYMELLSLTSEDSAVYYCARSGYYGDSDWYFDVWGAGTTVTVSSGGGGSGGGGSGGGGSDIQMTQTTSSLSASLGDRVTISCRASQDIRNYLNWYQQKPDGTVKLLIYYTSRLHSGVPSKFSGSGSGTDYSLTISNLEQEDIATYFCQQGNTLPWTFAGGTKLEIKGGGGSQVQLVQSGAEVKKPGASVKVSCKVSGYTLTELSMHWVRQAPGKGLEWMGGFDPEDGETIYAQKFQGRVTMTEDTSTDTAYMELSSLRSEDTAVYYCATDQGSSWGFYWGQGTLVTVSS
notes: VLA-VHB-VLB-VHA, anti-CD3 UCHT1
B4: AM5 scDb (bispecific antibody)
chain: B3 chain with D26S, V27Q, H28S, Y30S, W31S, S91A, S93R, T94I, G369V, T459A
notes: as m68
B5: AMC5 scDb (bispecific antibody)
chain: B3 chain with V27I, H28D, Y30R, Y388P, T389K, T391Y, L393V, S463A
notes: as m68
B6: AM3 scDb (bispecific antibody)
chain: B3 chain with V27H, Y30F
notes: as m68
B7: AMC3 scDb (bispecific antibody)
chain: B3 chain with D26S, V27Q, H28N, Y30M, Y388P, T389K, T391Y, L393V, S463A
notes: as m68
B8: AMC4 scDb (bispecific antibody)
chain: B3 chain with V27H, Y30F, Y388P, T389K, T391Y, L393V, S463A
notes: as m68
B9: AMC10 scDb (bispecific antibody)
chain: DIQLTQSPSSLSASVGDRVTITCRASQNIMWYLNWYQQKPGKAPKLLIYAASGLQSGVPSRFSGSGSGTDFTLTISSLQPEDFATYYCQQSYSTPFTFGPGTKVDIKGGGGSEVQLQQSGPELVKPGASMKISCKASGYSFTGYTMNWVKQSHGKNLEWMGLINPYKGVSTYNQKFKDKATLTVDKSSSTAYMELLSLTSEDSAVYYCARSGYYGDSDWYFDVWGAGTTVTVSSGGGGSGGGGSGGGGSDIQMTQTTSSLSASLGDRVTISCRASQDIRNYLNWYQQKPDGTVKLLIYYTSRLHSGVPSKFSGSGSGTDYSLTISNLEQEDIATYFCQQGNTLPWTFAGGTKLEIKGGGGSQVQLVQSGAEVKKPGASVKVSCKVSGYTLTELSMHWVRQAPGKGLEWMGGFDPEDGETIYAQKFQGRVTMTEDTSTDTAYMELSSLRSEDTAVYYCATDQGSSWGFYWGQGTLVTVSS
notes: as m68
B10: AMC7 scDb (bispecific antibody)
chain: B3 chain with D26S, V27Q, H28N, Y30M, Y388P, T389K, T391Y, L393V
notes: as m68
B11: AM4 scDb (bispecific antibody)
chain: B3 chain with V27I, H28D, Y30R
notes: as m68
B12: AMC12 scDb (bispecific antibody)
chain: DIRVTQSPSSLSASVGDRVTITCRASQNIMWYLNWYQQKPGKAPKLLIYAASSLQSGVPSRFSGSGSGTDFTLTISSLQPEDFATYYCQQAYRIPYTFGQGTKLEIKGGGGSEVQLQQSGPELVKPGASMKISCKASGYSFTGYTMNWVKQSHGKNLEWMGLINPYKGVSTYNQKFKDKATLTVDKSSSTAYMELLSLTSEDSAVYYCARSGYYGDSDWYFDVWGAGTTVTVSSGGGGSGGGGSGGGGSDIQMTQTTSSLSASLGDRVTISCRASQDIRNYLNWYQQKPDGTVKLLIYYTSRLHSGVPSKFSGSGSGTDYSLTISNLEQEDIATYFCQQGNTLPWTFAGGTKLEIKGGGGSQVQLVQSGAEVKKPGASVKVSCKVSGPKLYEVSMHWVRQAPGKGLEWMGGFDPEDGETIYAQKFQGRVTMTEDTSTDTAYMELSSLRSEDTAVYYCATDQGASWGFYWGQGTLVTVSS
notes: as m68
B13: AM18 scDb (bispecific antibody)
chain: B3 chain with V4L, A13V, D26S, V27E, H28D, Y30R, W31Y, L33V
notes: as m68
B14: AMC11 scDb (bispecific antibody)
chain: B12 chain with P388Y, K389T, Y391T, V393L, A463S
notes: as m68
B15: AM12 scDb (bispecific antibody)
chain: B3 chain with D26S, V27Q, H28N, Y30M, D416Q, S463A
notes: as m68
B16: AMC14 scDb (bispecific antibody)
chain: B12 chain with A463S
notes: as m68
B17: AM16 scDb (bispecific antibody)
chain: B9 chain with T22S, N28S, W31T, K39R, A50S, G53R, S67Y, D70E
notes: as m68

Each binder was assayed against T1, HLA-A*02:01/MAGE-A4^230-239 displayed on cells (MAGE-A4^230-239 pulsed T2 cells; NCI-H1703, A375, THP1, … (human, UniProt P04439 25-365 at identity 0.94); P61769 21-119) (assay: cell-based or functional assay).

First: B1
Second: B2
The “IFNγ EC50 vs. target positive cells (pM)” value of the first is lower: 3.6 pM for the first, 8.6 pM for the second.

First: B3
Second: B4
The “IFNγ EC50 vs. target positive cells (pM)” value of the first is higher: 11.8 pM for the first, 9 pM for the second.

Going from B5 to B6, the “IFNγ EC50 vs. target positive cells (pM)” value falls from 8 pM to 5.8 pM.

Going from B7 to B8, the “IFNγ EC50 vs. target positive cells (pM)” value rises from 7.3 pM to 9.2 pM.

First: B9
Second: B10
The “IFNγ EC50 vs. target positive cells (pM)” value of the first is lower: 1.7 pM for the first, 8.5 pM for the second.

Compared with B11, B12 is higher in “IFNγ EC50 vs. target positive cells (pM)” value: 4.5 pM for the first, 6.9 pM for the second.

Going from B13 to B14, the “IFNγ EC50 vs. target positive cells (pM)” value falls from 9.5 pM to 8.5 pM.

First: B15
Second: B16
The “IFNγ EC50 vs. target positive cells (pM)” value of the first is lower: 6.4 pM for the first, 8.2 pM for the second.

B17 was tested, and the “IFNγ EC50 vs. target positive cells (pM)” value was 12.3 pM.

The binders below were run against T2, HLA-A*02:01/MAGE-A4^230-239, soluble recombinant biotinylated pHLA (human, UniProt P04439 25-299 at identity 0.94); P61769 21-119, biotinylated) (assay: ELISA, soluble biotinylated pHLA on neutravidin, scDb, protL-HRP).
T2 construct: Empty biotinylated HLA-A2 monomers (Tetramer Shop) loaded with synthetic peptide; also called MAGE-A4 pMHC; MAGE-A4-pHLA
Description: ELISA plates were coated with 5 μg/mL NeutrAvidin in PBS and incubated 16 h/4° C. (step (a)) and blocked with 5% skim milk powder in PBST for 1 h/room temperature (RT) (step (c)). […] Bound phage particles were detected with an anti-Fd antibody (anti-M13-HRP (Amersham Biosciences)), whereas bound IgG1 and scDb was detected with HRP conjugated protein L (Genscript) (step (i)). […] Plates were developed with TMB solution and read at 450 nm using a microplate reader (step (k)). Between each layer, the plates were washed 3× with PBST (steps (b), (d), (f), (h), and (j)).

B1 and B2 are within 1.5-fold of each other in EC50: 0.45 nM for the first, 0.61 nM for the second.

Going from B3 to B4, the EC50 rises from 0.36 nM to 1.03 nM (2.9-fold).

First: B5
Second: B6
The EC50 of the first is 1.5-fold lower: 0.32 nM for the first, 0.48 nM for the second. The first is the more potent here.

B7 and B8 are within 1.5-fold of each other in EC50: 0.35 nM for the first, 0.36 nM for the second.

B9 and B10 are within 1.5-fold of each other in EC50: 0.46 nM for the first, 0.41 nM for the second.

B11 and B12 are within 1.5-fold of each other in EC50: 0.28 nM for the first, 0.25 nM for the second.

Compared with B13, B14 is 1.6-fold higher in EC50: 0.51 nM for the first, 0.81 nM for the second.

Compared with B15, B16 is 3.9-fold higher in EC50: 0.12 nM for the first, 0.47 nM for the second.

B17 was tested, and the EC50 was 1.85 nM.

Target: T1, HLA-A*02:01/MAGE-A4^230-239 displayed …
Test: cell-based or functional assay
Remark: another data set of the same source

B3 and B4 are the same in “EC50 vs. NCI-H1703 (pM), T-cell specific killing” value (“EC50 vs. NCI-H1703 (pM)” for short): 6.4 pM for the first, 6.4 pM for the second.

Going from B6 to B11, the “EC50 vs. NCI-H1703 (pM)” value falls from 3.4 pM to 3.1 pM.

First: B13
Second: B14
The “EC50 vs. NCI-H1703 (pM)” value of the first is higher: 4.4 pM for the first, 0.72 pM for the second.

Compared with B15, B17 is higher in “EC50 vs. NCI-H1703 (pM)” value: 4.3 pM for the first, 5.3 pM for the second.

Target: T1, HLA-A*02:01/MAGE-A4^230-239 displayed …
Test: cell-based or functional assay
Remark: another data set of the same source

With B14 the “EC50 vs. A375 (pM), T-cell specific killing” value was 2.3 pM.
